Results: patent US20190314531A1

Assays:
[1] = target: recombinant human PD-L1(B7-H1)-His-tag protein (catalog #9049-B7, R&D systems) (human) (UniProt Q9NZQ7); assay: FRET competitive inhibition of PD-L1-His-tag (80 nM) binding to PD-1-Ig (20 nM)
[2] = target: recombinant human PD-L1(B7-H1)-His-tag protein (catalog #9049-B7, R&D systems) (human) (UniProt Q9NZQ7); assay: FRET competitive inhibition of PD-L1-His-tag binding to PD-1-Ig, Cheng-Prusoff
[3] = target: recombinant human PD-L1(B7-H1)-His-tag protein (catalog #9049-B7, R&D systems) (human) (UniProt Q9NZQ7); assay: FRET competitive inhibition of PD-L1 binding to PD-1
[4] = target: human PD-L1 on cells (CHO cells stably expressing human PD-L1; MDAMB231, HCC827, H226, doxycycline-treated A549-iPDL1 cells and their tumors) (human) (UniProt Q9NZQ7); assay: flow cytometry on hPD-L1 cells, serial dilutions of WL12; competitor Cy5-AtzMab
Chain of human PD-L1 on cells (CHO cells stably expressing human PD-L1; MDAMB231, HCC827, H226, doxycycline-treated A549-iPDL1 cells and their tumors) (human) (Q9NZQ7 19-290): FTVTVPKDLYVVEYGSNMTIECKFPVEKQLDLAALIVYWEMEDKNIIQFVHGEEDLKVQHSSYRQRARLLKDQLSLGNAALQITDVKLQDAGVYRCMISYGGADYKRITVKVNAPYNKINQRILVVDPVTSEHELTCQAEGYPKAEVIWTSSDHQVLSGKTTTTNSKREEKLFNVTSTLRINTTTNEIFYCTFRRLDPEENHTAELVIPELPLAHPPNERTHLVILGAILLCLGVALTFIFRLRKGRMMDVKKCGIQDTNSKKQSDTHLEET

[5] = target: human PD-L1 on cells (CHO cells stably expressing human PD-L1; MDAMB231, HCC827, H226, doxycycline-treated A549-iPDL1 cells and their tumors) (human) (UniProt Q9NZQ7); assay: cell-based or functional assay
[6] = target: human PD-L1 on cells (CHO cells stably expressing human PD-L1; MDAMB231, HCC827, H226, doxycycline-treated A549-iPDL1 cells and their tumors) (human) (UniProt Q9NZQ7); assay: hPD-L1 cells, 1 uM blocking dose of WL12; competitor [^64Cu]WL12
[7] = target: human PD-L1 on cells (CHO cells stably expressing human PD-L1; MDAMB231, HCC827, H226, doxycycline-treated A549-iPDL1 cells and their tumors) (human) (UniProt Q9NZQ7); assay: flow cytometry on Cho-hPD-L1 and MDAMB231 cells; competitors Cy5-AtzMab, Cy5-AveMab, Cy5-DurMab (ends not tied to one mAb)
[8] = target: human PD-L1 on cells (CHO cells stably expressing human PD-L1; MDAMB231, HCC827, H226, doxycycline-treated A549-iPDL1 cells and their tumors) (human) (UniProt Q9NZQ7); assay: flow cytometry on hPD-L1 cells, serial dilutions of WL12; competitor BD-MIH1-PE
[9] = target: human PD-L1 on cells (CHO cells stably expressing human PD-L1; MDAMB231, HCC827, H226, doxycycline-treated A549-iPDL1 cells and their tumors) (human) (UniProt Q9NZQ7); assay: flow cytometry, in vitro binding; competitor Cy5-conjugated AtzMab
[10] = target: human PD-L1 on cells (CHO cells stably expressing human PD-L1; MDAMB231, HCC827, H226, doxycycline-treated A549-iPDL1 cells and their tumors) (human) (UniProt Q9NZQ7); assay: radiotracer on hPD-L1 cells, 1 h, gamma counting

Chain of recombinant human PD-L1(B7-H1)-His-tag protein (catalog #9049-B7, R&D systems) (human) (Q9NZQ7 19-239 limits assumed): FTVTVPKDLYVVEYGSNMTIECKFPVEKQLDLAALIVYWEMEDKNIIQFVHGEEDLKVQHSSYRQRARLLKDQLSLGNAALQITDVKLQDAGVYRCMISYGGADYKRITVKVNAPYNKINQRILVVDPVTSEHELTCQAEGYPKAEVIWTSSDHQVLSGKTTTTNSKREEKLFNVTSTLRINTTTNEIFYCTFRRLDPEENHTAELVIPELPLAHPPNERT

IC50 [1] | Ki [2] | IC50 [3] | IC50 [4] | reduction in % ID/g of [^64Cu]WL12 in hPD-L1 tumors on co-injection of excess WL12 (50 ug, 2 mg/kg), 2 h [5] | reduction in bound [^64Cu]WL12 [6] | inhibitory concentrations [7] | IC50 [8] | IC50 [9] | uptake of the incubated dose [10] | accumulation of [^64Cu]WL12 in A549-iPDL1 tumors after 72 h doxycycline against A549 control tumors [5] | radioactivity uptake in hPD-L1 tumors at 1 h, percentage of injected dose/g [5] | Substance
22.2 nM | 10.4 nM | 23 nM | – | – | – | – | – | – | – | – | – | WL12-DOTAGA (WL12D) (peptide)
20.3 nM | 1.1 nM | 22 nM | 2.5 nM | > 75% | > 95% | 5 nM | 37.8 nM | 37.8 nM | – | – | – | WL12 (unmodified PD-L1 binding peptide)
– | – | – | – | – | – | – | – | – | > 50% | 65% | 14.9 % ID/g | [^64Cu]WL12 (peptide)
2.97 nM | 1.38 nM | 2.9 nM | – | – | – | – | – | – | – | – | – | WL12-Cu^2+ complex (copper complex of WL12D) (peptide)
